Data reported in patent publication US20220306695A1, “COMPSTATIN ANALOGUES AND THEIR MEDICAL USES” (priority 2019, published 2022).
Positions of bridges follow the written chain, without caps; N, C: chain ends. Non-standard residues stand in square brackets, D forms with d. Trp(1-Me) = Cn1cc(C[C@H](N)C(=O)O)c2ccccc21; 2Nal = N[C@@H](Cc1ccc2ccccc2c1)C(=O)O; Sar = CNCC(=O)O

B1: Compound 80 (peptide)
peptide: Ac-EFCI[Trp(1-Me)]QDWGEHRC[Sar]EA-NH2
modifications: disulfide 3-13
SMILES: CC[C@H](C)[C@@H]1NC(=O)[C@@H](NC(=O)[C@H](Cc2ccccc2)NC(=O)[C@H](CCC(=O)O)NC(C)=O)CSSC[C@@H](C(=O)N(C)CC(=O)N[C@@H](CCC(=O)O)C(=O)N[C@@H](C)C(N)=O)NC(=O)[C@H](CCCNC(=N)N)NC(=O)[C@H](Cc2c[nH]cn2)NC(=O)[C@H](CCC(=O)O)NC(=O)CNC(=O)[C@H](Cc2c[nH]c3ccccc23)NC(=O)[C@H](CC(=O)O)NC(=O)[C@H](CCC(N)=O)NC(=O)[C@H](Cc2cn(C)c3ccccc23)NC1=O
B2: Compound 65 (peptide)
peptide: Ac-YCI[2Nal]QDWGEHRCTGAES-NH2
modifications: disulfide 2-12
SMILES: CC[C@H](C)[C@@H]1NC(=O)[C@@H](NC(=O)[C@H](Cc2ccc(O)cc2)NC(C)=O)CSSC[C@@H](C(=O)N[C@H](C(=O)NCC(=O)N[C@@H](C)C(=O)N[C@@H](CCC(=O)O)C(=O)N[C@@H](CO)C(N)=O)[C@@H](C)O)NC(=O)[C@H](CCCNC(=N)N)NC(=O)[C@H](Cc2c[nH]cn2)NC(=O)[C@H](CCC(=O)O)NC(=O)CNC(=O)[C@H](Cc2c[nH]c3ccccc23)NC(=O)[C@H](CC(=O)O)NC(=O)[C@H](CCC(N)=O)NC(=O)[C@H](Cc2ccc3ccccc3c2)NC1=O
B3: Compound 74 (peptide)
peptide: Ac-SEFCI[Trp(1-Me)]QDWGEHRC[Sar]GAES-NH2
modifications: disulfide 4-14
SMILES: CC[C@H](C)[C@@H]1NC(=O)[C@@H](NC(=O)[C@H](Cc2ccccc2)NC(=O)[C@H](CCC(=O)O)NC(=O)[C@H](CO)NC(C)=O)CSSC[C@@H](C(=O)N(C)CC(=O)NCC(=O)N[C@@H](C)C(=O)N[C@@H](CCC(=O)O)C(=O)N[C@@H](CO)C(N)=O)NC(=O)[C@H](CCCNC(=N)N)NC(=O)[C@H](Cc2c[nH]cn2)NC(=O)[C@H](CCC(=O)O)NC(=O)CNC(=O)[C@H](Cc2c[nH]c3ccccc23)NC(=O)[C@H](CC(=O)O)NC(=O)[C@H](CCC(N)=O)NC(=O)[C@H](Cc2cn(C)c3ccccc23)NC1=O
B4: Compound 71 (peptide)
peptide: Ac-SEYCI[Trp(1-Me)]QDWGEHRC[Sar]EA-NH2
modifications: disulfide 4-14
SMILES: CC[C@H](C)[C@@H]1NC(=O)[C@@H](NC(=O)[C@H](Cc2ccc(O)cc2)NC(=O)[C@H](CCC(=O)O)NC(=O)[C@H](CO)NC(C)=O)CSSC[C@@H](C(=O)N(C)CC(=O)N[C@@H](CCC(=O)O)C(=O)N[C@@H](C)C(N)=O)NC(=O)[C@H](CCCNC(=N)N)NC(=O)[C@H](Cc2c[nH]cn2)NC(=O)[C@H](CCC(=O)O)NC(=O)CNC(=O)[C@H](Cc2c[nH]c3ccccc23)NC(=O)[C@H](CC(=O)O)NC(=O)[C@H](CCC(N)=O)NC(=O)[C@H](Cc2cn(C)c3ccccc23)NC1=O
B5: Compound 84 (peptide)
peptide: Ac-SEFCI[Trp(1-Me)]QDWGEHRCSEA-NH2
modifications: disulfide 4-14
SMILES: CC[C@H](C)[C@@H]1NC(=O)[C@@H](NC(=O)[C@H](Cc2ccccc2)NC(=O)[C@H](CCC(=O)O)NC(=O)[C@H](CO)NC(C)=O)CSSC[C@@H](C(=O)N[C@@H](CO)C(=O)N[C@@H](CCC(=O)O)C(=O)N[C@@H](C)C(N)=O)NC(=O)[C@H](CCCNC(=N)N)NC(=O)[C@H](Cc2c[nH]cn2)NC(=O)[C@H](CCC(=O)O)NC(=O)CNC(=O)[C@H](Cc2c[nH]c3ccccc23)NC(=O)[C@H](CC(=O)O)NC(=O)[C@H](CCC(N)=O)NC(=O)[C@H](Cc2cn(C)c3ccccc23)NC1=O
B6: Compound 68 (peptide)
peptide: Ac-YCI[Trp(1-Me)]QDWGEHRCTEAGS-NH2
modifications: disulfide 2-12
SMILES: CC[C@H](C)[C@@H]1NC(=O)[C@@H](NC(=O)[C@H](Cc2ccc(O)cc2)NC(C)=O)CSSC[C@@H](C(=O)N[C@H](C(=O)N[C@@H](CCC(=O)O)C(=O)N[C@@H](C)C(=O)NCC(=O)N[C@@H](CO)C(N)=O)[C@@H](C)O)NC(=O)[C@H](CCCNC(=N)N)NC(=O)[C@H](Cc2c[nH]cn2)NC(=O)[C@H](CCC(=O)O)NC(=O)CNC(=O)[C@H](Cc2c[nH]c3ccccc23)NC(=O)[C@H](CC(=O)O)NC(=O)[C@H](CCC(N)=O)NC(=O)[C@H](Cc2cn(C)c3ccccc23)NC1=O
B7: Compound 79 (peptide)
peptide: Ac-SEFCI[Trp(1-Me)]QDW[Sar]EHRC[Sar]E-NH2
modifications: disulfide 4-14
SMILES: CC[C@H](C)[C@@H]1NC(=O)[C@@H](NC(=O)[C@H](Cc2ccccc2)NC(=O)[C@H](CCC(=O)O)NC(=O)[C@H](CO)NC(C)=O)CSSC[C@@H](C(=O)N(C)CC(=O)N[C@@H](CCC(=O)O)C(N)=O)NC(=O)[C@H](CCCNC(=N)N)NC(=O)[C@H](Cc2c[nH]cn2)NC(=O)[C@H](CCC(=O)O)NC(=O)CN(C)C(=O)[C@H](Cc2c[nH]c3ccccc23)NC(=O)[C@H](CC(=O)O)NC(=O)[C@H](CCC(N)=O)NC(=O)[C@H](Cc2cn(C)c3ccccc23)NC1=O
B8: Compound 72 (peptide)
peptide: Ac-FCI[Trp(1-Me)]QDW[Sar]EHRCTGAES-NH2
modifications: disulfide 2-12
SMILES: CC[C@H](C)[C@@H]1NC(=O)[C@@H](NC(=O)[C@H](Cc2ccccc2)NC(C)=O)CSSC[C@@H](C(=O)N[C@H](C(=O)NCC(=O)N[C@@H](C)C(=O)N[C@@H](CCC(=O)O)C(=O)N[C@@H](CO)C(N)=O)[C@@H](C)O)NC(=O)[C@H](CCCNC(=N)N)NC(=O)[C@H](Cc2c[nH]cn2)NC(=O)[C@H](CCC(=O)O)NC(=O)CN(C)C(=O)[C@H](Cc2c[nH]c3ccccc23)NC(=O)[C@H](CC(=O)O)NC(=O)[C@H](CCC(N)=O)NC(=O)[C@H](Cc2cn(C)c3ccccc23)NC1=O
B9: Compound 78 (peptide)
peptide: Ac-SEFCI[Trp(1-Me)]QDWGEHRC[Sar]E-NH2
modifications: disulfide 4-14
SMILES: CC[C@H](C)[C@@H]1NC(=O)[C@@H](NC(=O)[C@H](Cc2ccccc2)NC(=O)[C@H](CCC(=O)O)NC(=O)[C@H](CO)NC(C)=O)CSSC[C@@H](C(=O)N(C)CC(=O)N[C@@H](CCC(=O)O)C(N)=O)NC(=O)[C@H](CCCNC(=N)N)NC(=O)[C@H](Cc2c[nH]cn2)NC(=O)[C@H](CCC(=O)O)NC(=O)CNC(=O)[C@H](Cc2c[nH]c3ccccc23)NC(=O)[C@H](CC(=O)O)NC(=O)[C@H](CCC(N)=O)NC(=O)[C@H](Cc2cn(C)c3ccccc23)NC1=O
B10: Compound 76 (peptide)
peptide: Ac-SEFCI[Trp(1-Me)]QDW[Sar]EHRC[Sar]EA-NH2
modifications: disulfide 4-14
SMILES: CC[C@H](C)[C@@H]1NC(=O)[C@@H](NC(=O)[C@H](Cc2ccccc2)NC(=O)[C@H](CCC(=O)O)NC(=O)[C@H](CO)NC(C)=O)CSSC[C@@H](C(=O)N(C)CC(=O)N[C@@H](CCC(=O)O)C(=O)N[C@@H](C)C(N)=O)NC(=O)[C@H](CCCNC(=N)N)NC(=O)[C@H](Cc2c[nH]cn2)NC(=O)[C@H](CCC(=O)O)NC(=O)CN(C)C(=O)[C@H](Cc2c[nH]c3ccccc23)NC(=O)[C@H](CC(=O)O)NC(=O)[C@H](CCC(N)=O)NC(=O)[C@H](Cc2cn(C)c3ccccc23)NC1=O
B11: Compound 83 (peptide)
peptide: Ac-SEFCI[Trp(1-Me)]QEWGEHRC[Sar]EA-NH2
modifications: disulfide 4-14
SMILES: CC[C@H](C)[C@@H]1NC(=O)[C@@H](NC(=O)[C@H](Cc2ccccc2)NC(=O)[C@H](CCC(=O)O)NC(=O)[C@H](CO)NC(C)=O)CSSC[C@@H](C(=O)N(C)CC(=O)N[C@@H](CCC(=O)O)C(=O)N[C@@H](C)C(N)=O)NC(=O)[C@H](CCCNC(=N)N)NC(=O)[C@H](Cc2c[nH]cn2)NC(=O)[C@H](CCC(=O)O)NC(=O)CNC(=O)[C@H](Cc2c[nH]c3ccccc23)NC(=O)[C@H](CCC(=O)O)NC(=O)[C@H](CCC(N)=O)NC(=O)[C@H](Cc2cn(C)c3ccccc23)NC1=O
B12: Compound 69 (peptide)
peptide: Ac-YCI[Trp(1-Me)]QDWGEHRCTESGA-NH2
modifications: disulfide 2-12
SMILES: CC[C@H](C)[C@@H]1NC(=O)[C@@H](NC(=O)[C@H](Cc2ccc(O)cc2)NC(C)=O)CSSC[C@@H](C(=O)N[C@H](C(=O)N[C@@H](CCC(=O)O)C(=O)N[C@@H](CO)C(=O)NCC(=O)N[C@@H](C)C(N)=O)[C@@H](C)O)NC(=O)[C@H](CCCNC(=N)N)NC(=O)[C@H](Cc2c[nH]cn2)NC(=O)[C@H](CCC(=O)O)NC(=O)CNC(=O)[C@H](Cc2c[nH]c3ccccc23)NC(=O)[C@H](CC(=O)O)NC(=O)[C@H](CCC(N)=O)NC(=O)[C@H](Cc2cn(C)c3ccccc23)NC1=O
B13: Compound 70 (peptide)
peptide: Ac-EGSAYCI[Trp(1-Me)]QEWGEHRC[Sar]E-NH2
modifications: disulfide 6-16
SMILES: CC[C@H](C)[C@@H]1NC(=O)[C@@H](NC(=O)[C@H](Cc2ccc(O)cc2)NC(=O)[C@H](C)NC(=O)[C@H](CO)NC(=O)CNC(=O)[C@H](CCC(=O)O)NC(C)=O)CSSC[C@@H](C(=O)N(C)CC(=O)N[C@@H](CCC(=O)O)C(N)=O)NC(=O)[C@H](CCCNC(=N)N)NC(=O)[C@H](Cc2c[nH]cn2)NC(=O)[C@H](CCC(=O)O)NC(=O)CNC(=O)[C@H](Cc2c[nH]c3ccccc23)NC(=O)[C@H](CCC(=O)O)NC(=O)[C@H](CCC(N)=O)NC(=O)[C@H](Cc2cn(C)c3ccccc23)NC1=O
B14: Compound 77 (peptide)
peptide: Ac-SEFCI[Trp(1-Me)]QDW[Sar]EHRCTEA-NH2
modifications: disulfide 4-14
SMILES: CC[C@H](C)[C@@H]1NC(=O)[C@@H](NC(=O)[C@H](Cc2ccccc2)NC(=O)[C@H](CCC(=O)O)NC(=O)[C@H](CO)NC(C)=O)CSSC[C@@H](C(=O)N[C@H](C(=O)N[C@@H](CCC(=O)O)C(=O)N[C@@H](C)C(N)=O)[C@@H](C)O)NC(=O)[C@H](CCCNC(=N)N)NC(=O)[C@H](Cc2c[nH]cn2)NC(=O)[C@H](CCC(=O)O)NC(=O)CN(C)C(=O)[C@H](Cc2c[nH]c3ccccc23)NC(=O)[C@H](CC(=O)O)NC(=O)[C@H](CCC(N)=O)NC(=O)[C@H](Cc2cn(C)c3ccccc23)NC1=O

molecular target: Human C3 (human, UniProt P01024 23-1663); assay: cell-based or functional assay
Sequence (P01024 23-1663 limits assumed): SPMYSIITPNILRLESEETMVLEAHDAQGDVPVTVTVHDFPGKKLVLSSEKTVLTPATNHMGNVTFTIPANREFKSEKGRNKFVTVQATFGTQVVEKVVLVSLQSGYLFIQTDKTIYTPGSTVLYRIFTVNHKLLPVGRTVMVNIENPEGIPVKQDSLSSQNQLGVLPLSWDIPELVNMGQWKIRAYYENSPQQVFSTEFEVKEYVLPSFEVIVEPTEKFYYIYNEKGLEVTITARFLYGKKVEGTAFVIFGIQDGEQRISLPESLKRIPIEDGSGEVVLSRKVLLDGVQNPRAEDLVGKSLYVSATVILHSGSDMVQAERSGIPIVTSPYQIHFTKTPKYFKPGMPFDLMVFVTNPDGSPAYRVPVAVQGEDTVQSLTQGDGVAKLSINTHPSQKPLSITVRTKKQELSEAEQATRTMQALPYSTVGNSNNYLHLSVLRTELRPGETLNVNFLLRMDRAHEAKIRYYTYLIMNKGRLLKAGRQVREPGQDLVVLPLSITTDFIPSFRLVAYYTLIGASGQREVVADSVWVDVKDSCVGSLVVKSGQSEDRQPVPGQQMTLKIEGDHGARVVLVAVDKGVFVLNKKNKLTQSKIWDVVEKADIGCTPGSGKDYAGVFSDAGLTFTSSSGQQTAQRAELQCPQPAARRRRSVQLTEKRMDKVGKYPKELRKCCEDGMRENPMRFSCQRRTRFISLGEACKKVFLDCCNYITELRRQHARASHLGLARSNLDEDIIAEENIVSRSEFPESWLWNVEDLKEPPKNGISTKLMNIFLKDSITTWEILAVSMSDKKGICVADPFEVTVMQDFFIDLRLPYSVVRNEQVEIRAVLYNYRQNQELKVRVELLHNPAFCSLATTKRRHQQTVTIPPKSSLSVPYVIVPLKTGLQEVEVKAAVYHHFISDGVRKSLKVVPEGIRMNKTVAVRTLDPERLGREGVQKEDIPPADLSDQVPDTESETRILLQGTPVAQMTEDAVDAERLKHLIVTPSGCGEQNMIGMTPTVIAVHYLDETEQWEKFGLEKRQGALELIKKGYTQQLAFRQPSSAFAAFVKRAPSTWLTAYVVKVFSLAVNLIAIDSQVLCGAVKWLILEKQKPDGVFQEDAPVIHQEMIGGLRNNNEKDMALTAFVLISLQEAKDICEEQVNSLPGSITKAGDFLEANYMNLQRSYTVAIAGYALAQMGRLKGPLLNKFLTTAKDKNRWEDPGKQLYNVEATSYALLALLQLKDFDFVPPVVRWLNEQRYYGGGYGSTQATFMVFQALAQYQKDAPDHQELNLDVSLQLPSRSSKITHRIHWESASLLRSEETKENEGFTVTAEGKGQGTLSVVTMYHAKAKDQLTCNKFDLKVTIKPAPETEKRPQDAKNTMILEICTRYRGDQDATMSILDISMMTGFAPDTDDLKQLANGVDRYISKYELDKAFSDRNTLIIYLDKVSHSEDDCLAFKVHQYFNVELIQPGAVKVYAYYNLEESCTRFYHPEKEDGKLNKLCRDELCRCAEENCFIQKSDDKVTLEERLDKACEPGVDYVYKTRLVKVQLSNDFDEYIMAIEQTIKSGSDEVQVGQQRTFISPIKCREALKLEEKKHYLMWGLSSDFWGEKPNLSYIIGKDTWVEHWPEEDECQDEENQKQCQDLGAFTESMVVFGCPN

| Binder | IC50[nM], inhibition of hemolysis [nM] |
| --- | --- |
| B1 | < 100 |
| B2 | < 100 |
| B3 | < 100 |
| B4 | < 100 |
| B5 | < 100 |
| B6 | < 100 |
| B7 | < 100 |
| B8 | < 100 |
| B9 | < 100 |
| B10 | < 100 |
| B11 | < 100 |
| B12 | < 100 |
| B13 | < 100 |
| B14 | < 100 |
